The term stoichiometry N denotes a count of units in the complex or per binding partner.

In data set [1] the target is T1, UV … LOCUS 8 (UVR8), wild-type, purified (Arabidopsis thaliana), Q9FN03.
T1 chain: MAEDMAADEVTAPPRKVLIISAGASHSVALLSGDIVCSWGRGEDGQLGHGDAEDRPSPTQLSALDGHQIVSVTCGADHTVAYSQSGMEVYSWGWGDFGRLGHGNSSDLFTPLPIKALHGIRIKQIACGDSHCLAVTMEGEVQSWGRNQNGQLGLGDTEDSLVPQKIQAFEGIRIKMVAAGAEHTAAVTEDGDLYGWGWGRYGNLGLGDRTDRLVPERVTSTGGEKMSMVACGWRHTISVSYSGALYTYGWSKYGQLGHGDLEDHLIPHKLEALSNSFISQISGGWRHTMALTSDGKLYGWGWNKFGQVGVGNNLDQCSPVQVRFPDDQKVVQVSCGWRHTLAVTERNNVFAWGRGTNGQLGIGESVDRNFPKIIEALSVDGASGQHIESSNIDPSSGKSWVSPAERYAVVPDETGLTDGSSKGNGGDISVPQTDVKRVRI
Description: SDS-PAGE with non-boiled samples; purified protein not exposed to UV-B; 10% gel, Coomassie stain; dimer to monomers. The note with it: remark: other sources report otherwise.

Data set [2] concerns the molecule itself. Description: SDS-PAGE with non-boiled samples; protein extracts of 14-day-old plants not exposed to UV-B (also after return to white light following UV-B, re-dimerization); immunoblot with anti-UVR8-C; dimer to monomers. A general note: A western blot detects proteins with antibodies after separation by electrophoresis.
Data set [3] deals with the molecule itself. Description: SDS-PAGE with non-boiled samples; purified protein not exposed to UV-B; 10% gel, Coomassie stain; dimer to monomers.

B1: UV … LOCUS 8 (UVR8), wild-type, purified, Q9FN03 1-440 (natural protein)
chain: MAEDMAADEVTAPPRKVLIISAGASHSVALLSGDIVCSWGRGEDGQLGHGDAEDRPSPTQLSALDGHQIVSVTCGADHTVAYSQSGMEVYSWGWGDFGRLGHGNSSDLFTPLPIKALHGIRIKQIACGDSHCLAVTMEGEVQSWGRNQNGQLGLGDTEDSLVPQKIQAFEGIRIKMVAAGAEHTAAVTEDGDLYGWGWGRYGNLGLGDRTDRLVPERVTSTGGEKMSMVACGWRHTISVSYSGALYTYGWSKYGQLGHGDLEDHLIPHKLEALSNSFISQISGGWRHTMALTSDGKLYGWGWNKFGQVGVGNNLDQCSPVQVRFPDDQKVVQVSCGWRHTLAVTERNNVFAWGRGTNGQLGIGESVDRNFPKIIEALSVDGASGQHIESSNIDPSSGKSWVSPAERYAVVPDETGLTDGSSKGNGGDISVPQTDVKRVRI
In data set [1], B1 had a stoichiometry N of 2.

B2: GFP-UVR8^C231S,C335S (uvr8-1/35Spro:GFP-UVR8^C231S,C335S plants) (natural protein, Arabidopsis thaliana, UniProt Q9FN03 1-440, looked up)
chain: MAEDMAADEVTAPPRKVLIISAGASHSVALLSGDIVCSWGRGEDGQLGHGDAEDRPSPTQLSALDGHQIVSVTCGADHTVAYSQSGMEVYSWGWGDFGRLGHGNSSDLFTPLPIKALHGIRIKQIACGDSHCLAVTMEGEVQSWGRNQNGQLGLGDTEDSLVPQKIQAFEGIRIKMVAAGAEHTAAVTEDGDLYGWGWGRYGNLGLGDRTDRLVPERVTSTGGEKMSMVASGWRHTISVSYSGALYTYGWSKYGQLGHGDLEDHLIPHKLEALSNSFISQISGGWRHTMALTSDGKLYGWGWNKFGQVGVGNNLDQCSPVQVRFPDDQKVVQVSSGWRHTLAVTERNNVFAWGRGTNGQLGIGESVDRNFPKIIEALSVDGASGQHIESSNIDPSSGKSWVSPAERYAVVPDETGLTDGSSKGNGGDISVPQTDVKRVRI
notes: UVR8, Arabidopsis thaliana, with C231S and C335S; Cloned into the pEZR(K)L-C vector by the methods of Cloix et al. (2012); also called GFP-UVR8^SS; source: transgenic Arabidopsis uvr8-1/CaMV35Spro:GFP-UVR8^C231S,C335S, in protein extract
B2: in data set [2], the “stoichiometry N” value worked out at 2.

B3: UVR8^C231S,C335S, purified (natural protein, Arabidopsis thaliana, UniProt Q9FN03 1-440, looked up)
chain: MAEDMAADEVTAPPRKVLIISAGASHSVALLSGDIVCSWGRGEDGQLGHGDAEDRPSPTQLSALDGHQIVSVTCGADHTVAYSQSGMEVYSWGWGDFGRLGHGNSSDLFTPLPIKALHGIRIKQIACGDSHCLAVTMEGEVQSWGRNQNGQLGLGDTEDSLVPQKIQAFEGIRIKMVAAGAEHTAAVTEDGDLYGWGWGRYGNLGLGDRTDRLVPERVTSTGGEKMSMVASGWRHTISVSYSGALYTYGWSKYGQLGHGDLEDHLIPHKLEALSNSFISQISGGWRHTMALTSDGKLYGWGWNKFGQVGVGNNLDQCSPVQVRFPDDQKVVQVSSGWRHTLAVTERNNVFAWGRGTNGQLGIGESVDRNFPKIIEALSVDGASGQHIESSNIDPSSGKSWVSPAERYAVVPDETGLTDGSSKGNGGDISVPQTDVKRVRI
notes: UVR8, Arabidopsis thaliana, with C231S and C335S; also called UVR8^SS; source: E. coli, purified (as detailed by Christie et al., 2012)
As to B3, the “stoichiometry N” value in data set [3] was 2.

The values above are taken from paper PMC9546227, “Cysteines have a role in conformation of the UVR8 photoreceptor” (The Plant Journal, 2022).
